Data on 16 molecules can be found in patent publication US20150344570A1 (published 2015).

To fix the notation:
T1: FcγRIIb (human, UniProt P31994 43-217)
T1 construct: extracellular domain; Soluble extracellular domain with a C-terminal His tag, expressed in FreeStyle293 cells; also called FcgRIIb; 2b; not shown: His tag attached to the C terminus
T1 sequence (looked up): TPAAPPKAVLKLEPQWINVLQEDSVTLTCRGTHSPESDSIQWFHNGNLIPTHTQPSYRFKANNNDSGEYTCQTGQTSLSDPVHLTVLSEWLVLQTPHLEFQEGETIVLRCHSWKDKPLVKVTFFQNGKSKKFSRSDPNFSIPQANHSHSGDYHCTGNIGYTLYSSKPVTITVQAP

B1: GpH7-A5/GpH7-B3 variant P238_03V/GpL16-k0 (antibody, human IgG1, kappa)
heavy 1: not shown
heavy 2: not shown
light: DIVMTQSPLSLPVTPGEPASISCQASESLVHSNRNTYLHWYLQKPGQSPQLLIYKVSNRFSGVPDRFSGSGSGTDFTLKISRVEAEDVGVYYCSQNTHVPPTFGQGTKVEIERTVAAPSVFIFPPSDEQLKSGTASVVCLLNNFYPREAKVQWKVDNALQSGNSQESVTEQDSKDSTYSLSSTLTLSKADYEKHKVYACEVTHQGLSSPVTKSFNRGEC
notes: Heterodimerized anti-glypican-3 IgG1; the mutation is in the GpH7-B3 chain only; also called He Ab
B2: GpH7-A5/GpH7-B3 variant S239_11K/GpL16-k0 (antibody, human IgG1, kappa)
heavy 1: not shown
heavy 2: not shown
light: B1 light
notes: as for B1
B3: GpH7-A5/GpH7-B3 variant P238_07I/GpL16-k0 (antibody, human IgG1, kappa)
heavy 1: not shown
heavy 2: not shown
light: B1 light
notes: as for B1
B4: GpH7-A5/GpH7-B3 variant S239_16H/GpL16-k0 (antibody, human IgG1, kappa)
heavy 1: not shown
heavy 2: not shown
light: B1 light
notes: as for B1
B5: GpH7-A5/GpH7-B3 variant P238_09D/GpL16-k0 (antibody, human IgG1, kappa)
heavy 1: not shown
heavy 2: not shown
light: B1 light
notes: as for B1
B6: GpH7-A5/GpH7-B3 variant P238_14T/GpL16-k0 (antibody, human IgG1, kappa)
heavy 1: not shown
heavy 2: not shown
light: B1 light
notes: as for B1
B7: GpH7-A5/GpH7-B3 variant S239_03V/GpL16-k0 (antibody, human IgG1, kappa)
heavy 1: not shown
heavy 2: not shown
light: B1 light
notes: as for B1
B8: GpH7-A5/GpH7-B3 variant S239_15Y/GpL16-k0 (antibody, human IgG1, kappa)
heavy 1: not shown
heavy 2: not shown
light: B1 light
notes: as for B1
B9: GpH7-A5/GpH7-B3 variant P238_06M/GpL16-k0 (antibody, human IgG1, kappa)
heavy 1: not shown
heavy 2: not shown
light: B1 light
notes: as for B1
B10: GpH7-A5/GpH7-B3 variant P238_13S/GpL16-k0 (antibody, human IgG1, kappa)
heavy 1: not shown
heavy 2: not shown
light: B1 light
notes: as for B1
B11: GpH7-A5/GpH7-B3 variant P238_08L/GpL16-k0 (antibody, human IgG1, kappa)
heavy 1: not shown
heavy 2: not shown
light: B1 light
notes: as for B1
B12: GpH7-A5/GpH7-B3 variant S239_12R/GpL16-k0 (antibody, human IgG1, kappa)
heavy 1: not shown
heavy 2: not shown
light: B1 light
notes: as for B1
B13: GpH7-A5/GpH7-B3 variant S239_06M/GpL16-k0 (antibody, human IgG1, kappa)
heavy 1: not shown
heavy 2: not shown
light: B1 light
notes: as for B1
B14: GpH7-A5/GpH7-B3 variant P238_16H/GpL16-k0 (antibody, human IgG1, kappa)
heavy 1: not shown
heavy 2: not shown
light: B1 light
notes: as for B1
B15: GpH7-A5/GpH7-B3 variant D265_01G/GpL16-k0 (antibody, human IgG1, kappa)
heavy 1: not shown
heavy 2: not shown
light: B1 light
notes: as for B1
B16: GpH7-A5/GpH7-B3 variant S239_01G/GpL16-k0 (antibody, human IgG1, kappa)
heavy 1: not shown
heavy 2: not shown
light: B1 light
notes: Heterodimerized anti-glypican-3 IgG1; also called He Ab

T2 sequence (P08637 17-208): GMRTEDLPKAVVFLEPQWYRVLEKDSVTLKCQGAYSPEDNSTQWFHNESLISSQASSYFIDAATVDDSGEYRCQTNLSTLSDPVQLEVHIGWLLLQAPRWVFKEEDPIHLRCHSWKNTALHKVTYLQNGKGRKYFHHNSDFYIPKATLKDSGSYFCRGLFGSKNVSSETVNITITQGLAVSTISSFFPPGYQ

The first assay has as its target T2, FcγRIIIa (human, UniProt P08637 17-208).
T2 construct: extracellular domain; Soluble extracellular domain with a C-terminal His tag; also called FcgRIIIa; 3a; not shown: His tag attached to the C terminus
Description: SPR; He/Con_3a (FcγRIIIa) divided by He/Con_2b (FcγRIIb). A general note: Surface plasmon resonance follows binding to a sensor surface in real time, without labels.
With B1, the “He_3a/2b (IIIa/IIb)” value was 0.36 ratio.

For the molecule B2, the “He_3a/2b (IIIa/IIb)” value was 0.48 ratio.

Turning to B3, the “He_3a/2b (IIIa/IIb)” value is 0.35 ratio.

Turning to B4, the “He_3a/2b (IIIa/IIb)” value was 0.59 ratio.

For B5, the “He_3a/2b (IIIa/IIb)” value was found to be 0.48 ratio.

With B6, the “He_3a/2b (IIIa/IIb)” value worked out at 0.55 ratio.

For the molecule B7, the “He_3a/2b (IIIa/IIb)” value was found to be 0.71 ratio.

In the case of B8, the “He_3a/2b (IIIa/IIb)” value is 0.73 ratio.

Consider B9, for which the “He_3a/2b (IIIa/IIb)” value amounted to 0.18 ratio.

For the molecule B10, the “He_3a/2b (IIIa/IIb)” value was 0.64 ratio.

With B11, the “He_3a/2b (IIIa/IIb)” value came to 0.37 ratio.

As to B12, the “He_3a/2b (IIIa/IIb)” value stood at 0.44 ratio.

As for B13, the “He_3a/2b (IIIa/IIb)” value turned out to be 0.78 ratio.

Turning to B14, the “He_3a/2b (IIIa/IIb)” value is 0.27 ratio.

Take B15: the “He_3a/2b (IIIa/IIb)” value was 0.28 ratio.

B16: the “He_3a/2b (IIIa/IIb)” value worked out at 0.53 ratio.

A further assay deals with T1, FcγRIIb. Description: SPR (Biacore), antibody captured on chip, FcγR as analyte.
Regarding B1, the He/Con_2b is 120 relative binding, GpH7-A5/GpH7-B3/GpL16-k0 = 100.

B2: the He/Con_2b is 24.7 relative binding, GpH7-A5/GpH7-B3/GpL16-k0 = 100.

Take B3: the He/Con_2b is 80 relative binding, GpH7-A5/GpH7-B3/GpL16-k0 = 100.

As for B4, the He/Con_2b was 49.4 relative binding, GpH7-A5/GpH7-B3/GpL16-k0 = 100.

As for B5, the He/Con_2b was 221 relative binding, GpH7-A5/GpH7-B3/GpL16-k0 = 100.

With B6, the He/Con_2b is 50.7 relative binding, GpH7-A5/GpH7-B3/GpL16-k0 = 100.

On to B7, for which the He/Con_2b is 108 relative binding, GpH7-A5/GpH7-B3/GpL16-k0 = 100.

B8: the He/Con_2b was 34.9 relative binding, GpH7-A5/GpH7-B3/GpL16-k0 = 100.

B9: the He/Con_2b was 174 relative binding, GpH7-A5/GpH7-B3/GpL16-k0 = 100.

B10: the He/Con_2b is 70.4 relative binding, GpH7-A5/GpH7-B3/GpL16-k0 = 100.

In the case of B11, the He/Con_2b was 204 relative binding, GpH7-A5/GpH7-B3/GpL16-k0 = 100.

In the case of B12, the He/Con_2b is 39.1 relative binding, GpH7-A5/GpH7-B3/GpL16-k0 = 100.

In the case of B13, the He/Con_2b is 101 relative binding, GpH7-A5/GpH7-B3/GpL16-k0 = 100.

In the case of B14, the He/Con_2b is 115 relative binding, GpH7-A5/GpH7-B3/GpL16-k0 = 100.

For the molecule B15, the He/Con_2b was 16.1 relative binding, GpH7-A5/GpH7-B3/GpL16-k0 = 100.

Regarding B16, the He/Con_2b is 144 relative binding, GpH7-A5/GpH7-B3/GpL16-k0 = 100.

The target of another assay is T2, FcγRIIIa. The assay is described as above.
As to B1, the He/Con_3a was 43.8 relative binding, GpH7-A5/GpH7-B3/GpL16-k0 = 100.

Consider B2, for which the He/Con_3a was 11.9 relative binding, GpH7-A5/GpH7-B3/GpL16-k0 = 100.

In the case of B3, the He/Con_3a is 27.8 relative binding, GpH7-A5/GpH7-B3/GpL16-k0 = 100.

With B4, the He/Con_3a was 29.2 relative binding, GpH7-A5/GpH7-B3/GpL16-k0 = 100.

On to B5, for which the He/Con_3a was 106 relative binding, GpH7-A5/GpH7-B3/GpL16-k0 = 100.

B6: the He/Con_3a was 28 relative binding, GpH7-A5/GpH7-B3/GpL16-k0 = 100.

Regarding B7, the He/Con_3a was 76.6 relative binding, GpH7-A5/GpH7-B3/GpL16-k0 = 100.

With B8, the He/Con_3a is 25.6 relative binding, GpH7-A5/GpH7-B3/GpL16-k0 = 100.

For B9, the He/Con_3a is 30.5 relative binding, GpH7-A5/GpH7-B3/GpL16-k0 = 100.

As for B10, the He/Con_3a was 44.9 relative binding, GpH7-A5/GpH7-B3/GpL16-k0 = 100.

As for B11, the He/Con_3a is 75.5 relative binding, GpH7-A5/GpH7-B3/GpL16-k0 = 100.

As to B12, the He/Con_3a was 17 relative binding, GpH7-A5/GpH7-B3/GpL16-k0 = 100.

For B13, the He/Con_3a is 78.2 relative binding, GpH7-A5/GpH7-B3/GpL16-k0 = 100.

Consider B14, for which the He/Con_3a is 30.7 relative binding, GpH7-A5/GpH7-B3/GpL16-k0 = 100.

Turning to B15, the He/Con_3a is 4.5 relative binding, GpH7-A5/GpH7-B3/GpL16-k0 = 100.

For B16, the He/Con_3a was 76.2 relative binding, GpH7-A5/GpH7-B3/GpL16-k0 = 100.
